Results reported in patent US20160303245A1, “FATTY ACID DERIVATIVES OF DIMERIC INHIBITORS OF PSD-95” (UNIVERSITY OF COPENHAGEN, priority 2013, published 2016).

Assays:
[1] = molecular target: Human Serum Albumin (human) (UniProt P02768); assay: Transil XL HSA binding kit (immobilized HSA), unbound compound by RP-HPLC
[2] = molecular target: Human Serum Albumin (human) (UniProt P02768); assay: calculated from KD at 588 µM HSA (equation 2)
[3] = molecular target: Human Serum Albumin (human) (UniProt P02768); assay: calculated from KD(HSA) at 150 µM HSA (equation 2)

UCCB01-144 (peptide) showed a Kd [1] of 318 µM, a fb (%), fraction bound to HSA [2] of 65.3% and a fu (%), fraction unbound [3] of 67.9%.
